Data as given in patent publication US20020115596A1 (MERK, published 2002).
Non-standard residues stand in square brackets, D forms with d. Primed or numbered codes have the meaning given here. PEG(2)″ = polyethylene glycol containing substituent with 2 ethyleneoxy subunits; Hyp = O=C(O)[C@@H]1C[C@@H](O)CN1; Chg = N[C@H](C(=O)O)C1CCCCC1; ΔPro = O=C(O)[C@@H]1C=CCN1

What follows are binders tested against free prostate specific antigen (PSA) (human, UniProt P07288 25-261) (assay: cell-based or functional assay).

Binder | Time to 50% Substrate Cleavage by PSA (Min); the cell gives the percent cleaved at 3 hours
Ac-[ΔPro]AS[Chg]QSL-OH (SMILES CC(=O)N1CC=C[C@H]1C(=O)N[C@@H](C)C(=O)N[C@@H](CO)C(=O)N[C@H](C(=O)N[C@@H](CCC(N)=O)C(=O)N[C@@H](CO)C(=O)N[C@@H](CC(C)C)C(=O)O)C1CCCCC1) [Ac-(Dehydro-Pro)-ASChgQ-SL-acid] | 28 % cleaved at 3 hours
{PEG(2)″}-[Hyp]AS[Chg]QSL-OH [PEG(2)-(4-trans-L-Hyp)-ASChgQ-SL-acid] | 44 % cleaved at 3 hours
XASXQSX (N-terminal acetyl; 4-trans-L-Hyp (trans-4-hydroxy-L-proline) at position 1 (written X); Chg (cyclohexylglycine) at position 4 (written X); TIC (1,2,3,4-tetrahydro-3-isoquinoline carboxylic acid) at position 7 (written X); C-terminal free acid) [Ac-(4-trans-L-Hyp)ASChgQ-S(TIC)-acid] | 16 % cleaved at 3 hours
Ac-[Hyp][Chg]QSSSL-OH (SMILES CC(=O)N1C[C@H](O)C[C@H]1C(=O)N[C@H](C(=O)N[C@@H](CCC(N)=O)C(=O)N[C@@H](CO)C(=O)N[C@@H](CO)C(=O)N[C@@H](CO)C(=O)N[C@@H](CC(C)C)C(=O)O)C1CCCCC1) [Ac-(4-trans-L-Hyp)ChgQ-SSSL-acid] | 0 % cleaved at 3 hours
